Experimental data taken from publication PMC6945527 (European Heart Journal, 2019).

What was measured:
[1] = biological target: CAP1 of the surface plasmon resonance assay and of the binding-affinity measurement (UniProt Q01518)
[2] = biological target: PCSK9 WT of the binding-affinity measurement (Figure S2) (human, UniProt Q8NBP7 31-692)
[3] = biological target: PCSK9 S668RG670E of the binding-affinity measurement (Figure S2) (human, UniProt Q8NBP7 31-692, S668R | G670E)
[4] = biological target: PCSK9 A514T of the binding-affinity measurement (Figure S2) (human, UniProt Q8NBP7 31-692, A514T)
PCSK9 A514T of the binding-affinity measurement (Figure S2), sequence (Q8NBP7 31-692 A514T): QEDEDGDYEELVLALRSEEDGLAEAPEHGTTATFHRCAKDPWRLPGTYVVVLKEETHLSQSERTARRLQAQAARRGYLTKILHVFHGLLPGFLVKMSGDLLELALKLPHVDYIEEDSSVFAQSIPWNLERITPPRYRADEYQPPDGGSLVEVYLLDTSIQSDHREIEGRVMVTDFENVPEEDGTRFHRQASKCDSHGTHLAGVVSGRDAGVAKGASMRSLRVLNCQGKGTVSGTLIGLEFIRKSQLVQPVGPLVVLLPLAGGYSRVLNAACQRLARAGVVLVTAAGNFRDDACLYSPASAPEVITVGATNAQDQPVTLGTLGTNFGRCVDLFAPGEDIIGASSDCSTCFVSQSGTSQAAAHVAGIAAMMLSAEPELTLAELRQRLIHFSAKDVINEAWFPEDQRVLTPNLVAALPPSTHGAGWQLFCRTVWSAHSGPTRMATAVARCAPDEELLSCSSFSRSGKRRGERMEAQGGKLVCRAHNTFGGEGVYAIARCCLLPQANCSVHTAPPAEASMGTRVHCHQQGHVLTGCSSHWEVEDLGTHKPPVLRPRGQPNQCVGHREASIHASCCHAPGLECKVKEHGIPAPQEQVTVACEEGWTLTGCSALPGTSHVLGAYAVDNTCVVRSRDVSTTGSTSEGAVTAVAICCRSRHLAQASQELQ

PCSK9 S668RG670E of the binding-affinity measurement (Figure S2), sequence (Q8NBP7 31-692 S668R/G670E): as the sequence (Q8NBP7 31-692 A514T) above, with T484A, S638R, G640E counted along it
PCSK9 WT of the binding-affinity measurement (Figure S2), sequence (Q8NBP7 31-692): as the sequence (Q8NBP7 31-692 A514T) above, with T484A counted along it

Kd [1] [nM]	Kd [2] [nM]	Kd [3] [nM]	Kd [4] [nM]	Molecule
960				PCSK9 G670E of the binding-affinity measurement (Figure S2) (from UniProt Q8NBP7 31-692) (natural protein)
	450	2320	110	CAP1 of the surface plasmon resonance assay and of the binding-affinity measurement (natural protein) MADMQNLVERLERAVGRLEAVSHTSDMHRGYADSPSKAGAAPYVQAFDSLLAGPVAEYLKISKEIGGDVQKHAEMVHTGLKLERALLVTASQCQQPAENKLSDLLAPISEQIKEVITFREKNRGSKLFNHLSAVSESIQALGWVAMAPKPGPYVKEMNDAAMFYTNRVLKEYKDVDKKHVDWVKAYLSIWTELQAYIKEFHTTGLAWSKTGPVAKELSGLPSGPSAGSCPPPPPPCPPPPPVSTISCSYESASRSSLFAQINQGESITHALKHVSDDMKTHKNPALKAQSGPVRSGPKPFSAPKPQTSPSPKRATKKEPAVLELEGKKWRVENQENVSNLVIEDTELKQVAYIYKCVNTTLQIKGKINSITVDNCKKLGLVFDDVVGIVEIINSKDVKVQVMGKVPTISINKTDGCHAYLSKNSLDCEIVSAKSSEMNVLIPTEGGDFNEFPVPEQFKTLWNGQKLVTTVTEIAG
